In article PMC4447949, “Structures of the Ets Protein DNA-binding Domains of Transcription Factors Etv1, Etv4, Etv5, and Fev” (The Journal of Biological Chemistry, 2015) one finds Kd data, which are given here for 1 molecule.

Among the targets are Etv1 D387A (human, UniProt P50549 326-429, D387A); Etv1 R394A (human, UniProt P50549 326-429, R394A); Etv1 Y396F (human, UniProt P50549 326-429, Y396F); Etv1 R391A (human, UniProt P50549 326-429, R391A); Etv1 Y329S-P427S (human, UniProt P50549 326-429, Y329S;P427S).
Holding throughout (test): EMSA; 2 nM probe; 10 mM TCEP; EMSA: 50 mM Tris-HCl pH 7.5, 50 mM NaCl, 2 mM MgCl2, 0.01% Tween 20, 5% glycerol, 1 h at room temperature; proteins reduced with 10 mM TCEP unless stated; 10% native PAGE
What all share (conditions): protein: recombinant; tags: N-terminal His6 removed by TEV (leaves SM); blunt

Data set [1] deals with Etv1 Ets domain WT (reduced monomer) (human, UniProt P50549 326-429).
Etv1 Ets domain WT (reduced monomer), sequence (P50549 326-429): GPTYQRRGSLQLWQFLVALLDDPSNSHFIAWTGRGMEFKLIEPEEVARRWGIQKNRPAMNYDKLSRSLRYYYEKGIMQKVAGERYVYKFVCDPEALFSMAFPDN

Etv1 R394A, sequence (P50549 326-429 R394A): as the sequence (P50549 326-429) above, with R69A counted along it
Etv1 Y329S-P427S, sequence (P50549 326-429 Y329S/P427S): as the sequence (P50549 326-429) above, with Y4S, P102S counted along it
Etv1 R391A, sequence (P50549 326-429 R391A): as the sequence (P50549 326-429) above, with R66A counted along it
Etv1 D387A, sequence (P50549 326-429 D387A): as the sequence (P50549 326-429) above, with D62A counted along it
Etv1 Y396F, sequence (P50549 326-429 Y396F): as the sequence (P50549 326-429) above, with Y71F counted along it

B1: Etv1ALF/Etv1ALR EMSA probe (dsDNA)
DNA 1: ATCTCACCGGAAGTGTAGCA
DNA 2: TGCTACACTTCCGGTGAGAT
In the case of B1, the Kd worked out at 0.17 ± 0.02 nM in the data set with Etv1 D387A; 276 ± 62.7 nM with Etv1 R394A; 2640 ± 935 nM in the data set with Etv1 Y396F; 11.8 ± 1.48 nM with Etv1 R391A; 0.25 ± 0.026 nM with Etv1 Y329S-P427S; 0.27 ± 0.028 nM in data set [1].

In general, Kd refers to the equilibrium constant for the complex coming apart.
